Measurements as given in doi:10.1101/2021.12.20.473529 (bioRxiv, 2021).
Positions count from the first letter of the chain named. In names and notes the source's numbering stands.

Biological target: the molecule itself
Assay: SEC-MALS

B1: HNF-1A DD-DBD (HNF-1A 1-279), wild type (domain or fragment, human, UniProt P20823 1-279, looked up)
chain: MVSKLSQLQTELLAALLESGLSKEALIQALGEPGPYLLAGEGPLDKGESCGGGRGELAELPNGLGETRGSEDETDDDGEDFTPPILKELENLSPEEAAHQKAVVETLLQEDPWRVAKMVKSYLQQHNIPQREVVDTTGLNQSHLSQHLNKGTPMKTQKRAALYTWYVRKQREVAQQFTHAGQGGLIEEPTGDELPTKKGRRNRFKWGPASQQILFQAYERQKNPSKEERETLVEECNRAECIQRGVSPSQAQGLGSNLVTEVRVYNWFANRRKEEAFRH
In the case of B1, the “stoichiometry N” value is reported as 2.

B2: HNF-1A DD-DBD/R263C (domain or fragment, human, UniProt P20823 1-279, looked up)
chain: B1 chain with R263C
With B2 the “stoichiometry N” value was 2.

B3: HNF-1A DD-DBD/N266S (domain or fragment, human, UniProt P20823 1-279, looked up)
chain: B1 chain with N266S
B3 was tested, and the “stoichiometry N” value was 2.
